Columns and labels:
D. hansenii Get3 = biological target: T1, D. hansenii Get3 (Debaryomyces hansenii, UniProt Q6BSM0); experiment: X-ray crystallography, […] A, co-crystallization; details: 2 mM ADP, 1 mM MgCl2, 5 mM KCl, 0.2 M ammonium mono-basic phosphate, 20% glycerol; nucleotide-binding domain, closed dimer
T1 construct: recombinant, expressed and purified; homo-dimer; finger domain not visible in electron density
T1 sequence (Q6BSM0 1-348): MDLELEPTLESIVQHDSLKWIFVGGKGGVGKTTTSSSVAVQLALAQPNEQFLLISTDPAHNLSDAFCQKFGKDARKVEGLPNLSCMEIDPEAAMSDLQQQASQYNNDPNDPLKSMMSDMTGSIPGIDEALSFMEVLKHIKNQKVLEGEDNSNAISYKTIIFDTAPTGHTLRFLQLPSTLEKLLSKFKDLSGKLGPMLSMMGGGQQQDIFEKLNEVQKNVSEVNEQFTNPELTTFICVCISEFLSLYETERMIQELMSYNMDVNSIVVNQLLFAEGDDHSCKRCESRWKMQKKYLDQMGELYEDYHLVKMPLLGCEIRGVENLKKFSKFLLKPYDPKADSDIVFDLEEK

[1] = biological target: the molecule itself; experiment: crystal structure; S. cerevisiae Get3, nucleotide-free, 2.3 Å; hanging drop, 100 mM MES pH 6.0, PEG 3350 15%, 0.2 M ammonium sulfate; two monomers in the asymmetric unit
[2] = biological target: the molecule itself; experiment: crystal structure; D. hansenii Get3 with ADP, 1.8 Å; hanging drop, 0.2 M ammonium mono-basic phosphate, 20% glycerol, 1 mM MgCl2, 5 mM KCl, 2 mM ADP

Nc1ncnc2c1ncn2[C@@H]1O[C@H](COP(=O)(O)OP(=O)(O)O)[C@@H](O)[C@H]1O [ADP]
X-ray crystallography, 1.8 A, co-crystallization (D. hansenii Get3): The bound ADP molecule can be clearly identified in the Get3 nucleotide-binding domain (NBD)

B1: S. cerevisiae full-length Get3 (enzyme, UniProt Q12154 1-354, looked up)
chain: MDLTVEPNLHSLITSTTHKWIFVGGKGGVGKTTSSCSIAIQMALSQPNKQFLLISTDPAHNLSDAFGEKFGKDARKVTGMNNLSCMEIDPSAALKDMNDMAVSRANNNGSDGQGDDLGSLLQGGALADLTGSIPGIDEALSFMEVMKHIKRQEQGEGETFDTVIFDTAPTGHTLRFLQLPNTLSKLLEKFGEITNKLGPMLNSFMGAGNVDISGKLNELKANVETIRQQFTDPDLTTFVCVCISEFLSLYETERLIQELISYDMDVNSIIVNQLLFAENDQEHNCKRCQARWKMQKKYLDQIDELYEDFHVVKMPLCAGEIRGLNNLTKFSQFLNKEYNPITDGKVIYELEDKE
notes: Get3 (Arr4) ATPase, S. cerevisiae, full length; in the crystal residues 191-210 (molecule A) and 93-116 (molecule B) are not seen; Se-Met protein was used for phasing only; One Zn ion is held between the two monomers; also called ScGet3; Arr4; source: E. coli, purified (Ni-chelating column, gel-filtration column)
stoichiometry N [1]: 2

B2: D. hansenii Get3 (enzyme)
chain: MDLELEPTLESIVQHDSLKWIFVGGKGGVGKTTTSSSVAVQLALAQPNEQFLLISTDPAHNLSDAFCQKFGKDARKVEGLPNLSCMEIDPEAAMSDLQQQASQYNNDPNDPLKSMMSDMTGSIPGIDEALSFMEVLKHIKNQKVLEGEDNSNAISYKTIIFDTAPTGHTLRFLQLPSTLEKLLSKFKDLSGKLGPMLSMMGGGQQQDIFEKLNEVQKNVSEVNEQFTNPELTTFICVCISEFLSLYETERMIQELMSYNMDVNSIVVNQLLFAEGDDHSCKRCESRWKMQKKYLDQMGELYEDYHLVKMPLLGCEIRGVENLKKFSKFLLKPYDPKADSDIVFDLEEK
notes: Get3 ATPase of the yeast D. hansenii (Debaryomyces hansenii); finger domain not seen in the electron density; Crystallised with ADP and Mg; also called DhGet3; source: expressed and purified
stoichiometry N [2]: 2

From publication PMC2778870, “The Crystal Structures of Yeast Get3 Suggest a Mechanism for Tail-Anchored Protein Membrane Insertion” (PLoS ONE, 2009)
